Laboratory results reported in patent publication US20140255406A1.

What was measured:
[1] = target: human TNFα (human) (UniProt P01375); test: cell-based or functional assay
[2] = target: human non-cleavable membrane bound TNFα on CHO cells (human) (UniProt P01375); test: cell-based or functional assay
human non-cleavable membrane bound TNFα on CHO cells (human), sequence (P01375 whole entry): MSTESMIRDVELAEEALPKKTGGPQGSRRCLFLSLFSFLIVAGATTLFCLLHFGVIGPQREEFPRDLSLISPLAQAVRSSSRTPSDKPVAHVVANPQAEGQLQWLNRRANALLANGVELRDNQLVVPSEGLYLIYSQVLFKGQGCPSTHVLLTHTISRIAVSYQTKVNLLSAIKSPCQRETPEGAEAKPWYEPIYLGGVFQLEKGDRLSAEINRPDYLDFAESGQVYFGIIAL

human TNFα (human), sequence (P01375 77-233 limits assumed): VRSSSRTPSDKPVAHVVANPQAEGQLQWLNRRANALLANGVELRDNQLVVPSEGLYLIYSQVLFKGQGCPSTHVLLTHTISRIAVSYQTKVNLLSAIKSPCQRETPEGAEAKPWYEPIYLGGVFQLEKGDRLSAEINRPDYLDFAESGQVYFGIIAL

Average % inhibition of human TNFα-induced CXCL1 production in vivo (mouse plasma) [1]: 89.4%
Substance: adalimumab with IgG4 isotype (antibody)
IC50, inhibition of TNFα-induced killing of L929 cells (MTT) [1]: 0.243 nM | IC50, inhibition of killing of L929 cells by human non-cleavable membrane bound TNFα CHO cells (MTT) [2]: 0.669 nM
